According to the RNAGym collection of RNA variant scans (doi:10.1073/pnas.2313332121):
Fewer inactive variants are shown than the library holds.

B1: TPR 5TU (parent)
chain: GGAUCUUCUCGAUCUAACAAAAAAGACAAAUCUGCCACAAAGCUUGAGAGCAUCUUCGGAUGCAGAGGCGGCAGCCUUCGGUGGCGCGAUAGCGCCAACGUUCUCAACUAUGACACGCAAAACGCGUGCUCCGUUGAAUGGAGUUUAUCAUG

Variants of: B1
Assay: polymerase ribozyme fitness, log enrichment relative to wild type (log ratio); higher = more active; in vitro selection for triplet polymerase activity
In short: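 Fitness measures genotype enrichment against wild-type enrichment on a logarithmic scale, with inverse-variance-weighted averaging of replicates. The logarithm is base 2, and genotypes were kept only with ≥10 input reads and ≥1 read per output in Illumina sequencing. The sequenced libraries came from one triplicate in vitro selection round, including frozen incubation at −7 °C, of PCR-built, transcribed mutant libraries of each subunit of a heterodimeric triplet polymerase ribozyme.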

C27U A30U U55A G65U U102C A110G U111G C131A U134A and A28U A47G C96A G141A cannot be ordered by “polymerase ribozyme fitness (log ratio)” value: ≤ -4.2 for the first, ≤ -4.2 for the second.

A26U C54G C87G A106G U130G and A28U G88C A91U C118A cannot be ordered by “polymerase ribozyme fitness (log ratio)” value: ≤ -4.2 for the first, ≤ -4.2 for the second.

A28C A37G A47G A66C G86A A107U U135C and C27G A49G A66C cannot be ordered by “polymerase ribozyme fitness (log ratio)” value: ≤ -4.2 for the first, ≤ -4.2 for the second.

Compared with A28G A66C C79U G92U U148C, A26G C36G C57A G94U A142U G152C is lower in “polymerase ribozyme fitness (log ratio)” value: -3.86 for the first, ≤ -4.2 for the second.

A28C C54A G100A and C27G C76U G83A C85G A107U A119U G141A cannot be ordered by “polymerase ribozyme fitness (log ratio)” value: ≤ -4.2 for the first, ≤ -4.2 for the second.

A28U C69A C75U U139G and A26G G48C A49G A73G C76U G83C G92U U148C cannot be ordered by “polymerase ribozyme fitness (log ratio)” value: ≤ -4.2 for the first, ≤ -4.2 for the second.

Compared with A28U C57G, A29U A40C G62U G70A G84A C96A U139C is lower in “polymerase ribozyme fitness (log ratio)” value: -3.84 for the first, ≤ -4.2 for the second.

A26G A40C G68U and A26G C54G C57U C96U C132U cannot be ordered by “polymerase ribozyme fitness (log ratio)” value: ≤ -4.2 for the first, ≤ -4.2 for the second.

A29G C75U C96U U139G and A26U G50C C105A U109G C129U cannot be ordered by “polymerase ribozyme fitness (log ratio)” value: ≤ -4.2 for the first, ≤ -4.2 for the second.

A29G G86U U102G U134G G140U C149A and C27U U44A C54U U56A A60U U82A C85U A97C C105G A110C C118A cannot be ordered by “polymerase ribozyme fitness (log ratio)” value: ≤ -4.2 for the first, ≤ -4.2 for the second.

Compared with A28G G86U, C27U C32G G50A C69A A97G U135G G140A is lower in “polymerase ribozyme fitness (log ratio)” value: -3.52 for the first, ≤ -4.2 for the second.

C27G U53A U55A A91G C103G A137U and A29C U31G C95A A119G A142C G152U cannot be ordered by “polymerase ribozyme fitness (log ratio)” value: ≤ -4.2 for the first, ≤ -4.2 for the second.

Compared with C27G A40C A66G C79U A91C, A28G U53A U144G is lower in “polymerase ribozyme fitness (log ratio)” value: -4.03 for the first, ≤ -4.2 for the second.

Going from C27U C131U to C27U G128A, the “polymerase ribozyme fitness (log ratio)” value falls from 0.137 to -4.04.

C27A U134G U139A and C27A G50C G74C U77C U104A cannot be ordered by “polymerase ribozyme fitness (log ratio)” value: ≤ -4.2 for the first, ≤ -4.2 for the second.

A26U U33G C38U A40C U56A G83A A89G A97G G141C and A28U C32G G133C cannot be ordered by “polymerase ribozyme fitness (log ratio)” value: ≤ -4.2 for the first, ≤ -4.2 for the second.

A29G A98G and A26U U55A A60C cannot be ordered by “polymerase ribozyme fitness (log ratio)” value: ≤ -4.2 for the first, ≤ -4.2 for the second.

C27U G70C A138G and A26U U44A A97U cannot be ordered by “polymerase ribozyme fitness (log ratio)” value: ≤ -4.2 for the first, ≤ -4.2 for the second.

C27G U33A U55A C87A A98C U104G U148A and A28U U44G A60C C85A U144C U148A cannot be ordered by “polymerase ribozyme fitness (log ratio)” value: ≤ -4.2 for the first, ≤ -4.2 for the second.

A28U G94A and A26U U53A C76A G124U U145C cannot be ordered by “polymerase ribozyme fitness (log ratio)” value: ≤ -4.2 for the first, ≤ -4.2 for the second.

Going from A28C G68A G92C A122G C132G to A26U A40U A120U, the “polymerase ribozyme fitness (log ratio)” value rises from -3.62 to -2.33.

Going from A28U C99G to A28G C36U C87A A119U G133A, the “polymerase ribozyme fitness (log ratio)” value falls from -3.72 to ≤ -4.2.

C27U C95A A138G and C27G A49G A52C U82G A91G cannot be ordered by “polymerase ribozyme fitness (log ratio)” value: ≤ -4.2 for the first, ≤ -4.2 for the second.

Compared with A28U G42C G83C A121U, A26U G80A is higher in “polymerase ribozyme fitness (log ratio)” value: ≤ -4.2 for the first, -2.3 for the second.

C27U A47U C96A C103A G117A and C27G A28U U55G U61A C76A C96U C116G G133C cannot be ordered by “polymerase ribozyme fitness (log ratio)” value: ≤ -4.2 for the first, ≤ -4.2 for the second.

First: C27G U55A A60G C125U
Second: A28U G86A
The “polymerase ribozyme fitness (log ratio)” value of the first is lower: ≤ -4.2 for the first, -4.08 for the second.

A28U G59A and A28U C38U G59U A60G G94A C95U C103U cannot be ordered by “polymerase ribozyme fitness (log ratio)” value: ≤ -4.2 for the first, ≤ -4.2 for the second.

A28G U44G C51U C75A C76G G84U G140A and A29C C96A U102G G124U cannot be ordered by “polymerase ribozyme fitness (log ratio)” value: ≤ -4.2 for the first, ≤ -4.2 for the second.

A26U A60C G80C A91U A121C and A28G C43G G83U C93A U135G cannot be ordered by “polymerase ribozyme fitness (log ratio)” value: ≤ -4.2 for the first, ≤ -4.2 for the second.

First: A28C C87A C108G U146C
Second: A26U C54G
The “polymerase ribozyme fitness (log ratio)” value of the first is lower: ≤ -4.2 for the first, -3.33 for the second.

C27G A28U G81C G141A and A28U A41C U61A C99A A122C cannot be ordered by “polymerase ribozyme fitness (log ratio)” value: ≤ -4.2 for the first, ≤ -4.2 for the second.

C27U G67A C75U G86C U144C C149A A150G and A28U A41C C54A A60C C96A C105U A106U cannot be ordered by “polymerase ribozyme fitness (log ratio)” value: ≤ -4.2 for the first, ≤ -4.2 for the second.

Going from A28U C116G to A28U C54G C69U C79U A91U U134G, the “polymerase ribozyme fitness (log ratio)” value falls from -3.74 to ≤ -4.2.

Going from C27A U44A U61A C95U G117C A121U C129G to A26U A29U G62U C99U C125U U134A, the “polymerase ribozyme fitness (log ratio)” value rises from ≤ -4.2 to -4.08.

A28U G50C and A28C C38A G48C A73G U144C cannot be ordered by “polymerase ribozyme fitness (log ratio)” value: ≤ -4.2 for the first, ≤ -4.2 for the second.

First: A28C A30U
Second: C27U C36U C57U G58A C96A A121U G140A
The “polymerase ribozyme fitness (log ratio)” value of the first is higher: -3.88 for the first, ≤ -4.2 for the second.

A26U G42C C72A C93A C116U and A28C C87A A107C cannot be ordered by “polymerase ribozyme fitness (log ratio)” value: ≤ -4.2 for the first, ≤ -4.2 for the second.

A29C G94C A97G A98G U104G and C27A C85A C149U cannot be ordered by “polymerase ribozyme fitness (log ratio)” value: ≤ -4.2 for the first, ≤ -4.2 for the second.

Compared with C27U U145G, A29C C63A C87U U101C A115C G117C G133A is lower in “polymerase ribozyme fitness (log ratio)” value: -1.39 for the first, ≤ -4.2 for the second.

A28U A49C G58C G59A G84U U146A C149U and A29U A30G C51U A89G C149A cannot be ordered by “polymerase ribozyme fitness (log ratio)” value: ≤ -4.2 for the first, ≤ -4.2 for the second.

A29C C57U U104G G128U and A28U G48C C75U U90G G117A C129G cannot be ordered by “polymerase ribozyme fitness (log ratio)” value: ≤ -4.2 for the first, ≤ -4.2 for the second.

First: A29U A40G U53A C95G
Second: C27U C96A C105G
The “polymerase ribozyme fitness (log ratio)” value of the first is lower: ≤ -4.2 for the first, -2.96 for the second.
